Assay results: patent publication US10501552B2, “Multivalent molecules comprising DR5-binding domains” (MacroGenics, Inc., priority 2015, dated 2019)

Columns and labels:
HPAFII = assay: […]-GLO cell viability assay with vorinostat; assay type: cell-based; details: HPAFII (Pancreas); 1 μg/ml + 10 μM Vorinostat
DU145 [1] = assay: […]-GLO cell viability assay with vorinostat; assay type: cell-based, human; details: DU145 (Prostate); 1 μg/ml + 10 μM Vorinostat
LNCap = assay: MTS cell proliferation assay; assay type: cell-based, human; details: LNCap (Prostate); 1 μg/ml, ±10 μg/ml αmFc; two days
Description: (§1) Cell lines obtained from ATCC were cultured under standard tissue culture conditions. Each cell line was plated at ˜2×10^4 cells/well (in 96-well plates), and incubated overnight in F12/DMEM media supplemented with 10% FBS. […] Cell viability was determined using Promega CellTiter 96® AQeous Non-Radioactive Cell Proliferation Assay (Cat # G5430) essentially as described in the manufacturer's instructions to assay the amount of soluble formazan produced by cellular reduction of the MTS, which is a measure of the number of viable cells in the culture. Briefly, MTS/PMS regent was added to the wells and the absorbance at 490 nm (referenced at […]) was read in a Molecular Devices ThermoMax microplate reader.
(§2) Similar studies were performed over a range of anti-DR5 mAb concentrations from ˜10^−3 nM to ˜10^2 nM. The data for COLO205 cells is provided in FIG. 13, and are representative of cell lines sensitive to the antibodies of the invention.
(§3) The cytotoxicity of tetravalent DR5-Binding Molecules of the present invention was investigated. […] His-tagged TRAIL (R&D systems) was used as a positive control.
(§4) Similar studies were performed over a range of anti-DR5 mAb concentrations from ˜10^−3 nM to ˜10^2 nM.

DU145 [2] = assay: MTS cell proliferation assay; assay type: cell-based, human; details: DU145 (Prostate); 1 μg/ml, ±10 μg/ml αmFc; two days
Description: as §1, §2, §3, §4

A549 = assay: MTS cell proliferation assay; assay type: cell-based, human; details: A549 (Lung); 1 μg/ml, ±10 μg/ml αmFc; two days
Description: as §1, §2, §3, §4

SKBR3 [3] = assay: MTS cell proliferation assay; assay type: cell-based, human; details: SKBR3 (Breast); 1 μg/ml, ±10 μg/ml αmFc; two days
Description: as §1, §2, §3, §4

SKMES = assay: MTS cell proliferation assay; assay type: cell-based, human; details: SKMES (Lung); 1 μg/ml, ±10 μg/ml αmFc; two days
Description: as §1, §2, §3, §4

Calu3 = assay: […]-GLO cell viability assay with vorinostat; assay type: cell-based; details: Calu3 (Lung); 1 μg/ml + 1 μM Vorinostat
[4] = test system: cell lines obtained from ATCC; assay: MTS cell proliferation assay, panel of cell lines; assay type: cell-based; details: for inhibition of cell growth, antibody alone: any of cell lines examined, not cross-linked; for cytotoxicity when cross-linked: cross-linked by goat anti-mouse IgG Fc antibody
Description: as §1, §2, §3

MDA-MB-361 = assay: […]-GLO cell viability assay with vorinostat; assay type: cell-based; details: MDA-MB-361 (Breast); 1 μg/ml + 10 μM Vorinostat
BT474 = assay: […]-GLO cell viability assay with vorinostat; assay type: cell-based; details: BT474 (Breast); 1 μg/ml + 10 μM Vorinostat
AsPC1 = assay: […]-GLO cell viability assay with vorinostat; assay type: cell-based; details: AsPC1 (Pancreas); 1 μg/ml + 1 μM Vorinostat
Hs746T = assay: […]-GLO cell viability assay with vorinostat; assay type: cell-based; details: Hs746T (Stomach); 1 μg/ml + 10 μM Vorinostat
ES2 = assay: […]-GLO cell viability assay with vorinostat; assay type: cell-based; details: ES2 (Ovary); 1 μg/ml + 10 μM Vorinostat
DR5-Fc fusion = assay: binding to immobilized DR5-Fc fusion in presence of TRAIL; design: species or system human; details: for amount of immobilized biotinylated antibody: 2 μg/mL biotinylated, 1 μg/mL DR5-Fc fusion coat
DR5-Fc fusion, sequence (as listed by the source): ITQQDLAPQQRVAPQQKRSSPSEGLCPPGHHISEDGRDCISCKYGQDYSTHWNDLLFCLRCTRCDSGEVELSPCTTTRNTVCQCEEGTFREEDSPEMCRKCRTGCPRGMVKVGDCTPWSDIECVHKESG
Description: The amount of immobilized biotinylated antibody was assessed.

SKBR3 [5] = assay: […]-GLO cell viability assay with vorinostat; assay type: cell-based, human; details: SKBR3 (Breast); 1 μg/ml + 1 μM Vorinostat
[6] = test system: target tumor cells (A549, SKMES, DU145, A375, SKBR3, JIMT); assay: LDH release cytotoxicity with PBMC, comparison of DR5×CD3 diabodies; assay type: cell-based, human; details: VL and VH Domains tested as DR5×CD3 mAb 2 diabodies, 24 hours, 20:1
Description: In order to make such a comparison, a bispecific DR5×CD3 diabody having the structure shown in FIG. 1 containing the VL and VH Domains of these anti-DR5 antibodies and the VL and VH Domains of CD3 mAb 2 were prepared essentially as described above. The first and second The prepared diabodies were designated “DR5 mAb 1×CD3 mAb 2”; “DR5 mAb 2×CD3 mAb 2”; “DR5 mAb 3×CD3 mAb 2”; and “DR5 mAb 4×CD3 mAb 2”.
Target tumor cells were incubated with one of these diabodies or with the control diabody (4-4-20×CD3 mAb 2) in the presence of peripheral blood mononuclear cells (PBMC) and target tumor cells for 24 hours at an effector to target cell ratio of 20:1. The percentage cytotoxicity was determined by measuring the release of lactate dehydrogenase (LDH) into the media by damaged cells.
The employed target tumor cells were: A549 adenocarcinomic human alveolar basal epithelial cells (FIG. 10A), SKMES human lung cancer cells (FIG. 10B), DU145 human prostate cancer cells (FIG. 10C), A375 human malignant melanoma cells (FIG. 10D), SKBR3 human HER2-overexpressing breast carcinoma cells (FIG. 10E), and JIMT human breast carcinoma cells (FIG. 10F).

[7] = target: cynomolgus monkey DR5 (His-tagged); assay: Biacore analysis of binding kinetics; design: ka / kd: unit not given here; details: tested as DR5×CD3 mAb 2 diabody
Description: Bispecific DR5×CD3 diabodies were incubated with His-tagged DR5 and the kinetics of binding was determined via Biacore analysis. […] FIG. 6, Panels A-D show the results for human DR5. FIG. 6, Panels E-H show the results for cynomolgus monkey DR5.

| Molecule | Net Gain (Average % Growth Inhibition) (HPAFII) [%] | Net Gain (Average % Growth Inhibition) (DU145 [1]) [%] | % Inhibition (Average) (LNCap) [%] | % Inhibition (Average) (DU145 [2]) [%] | % Inhibition (Average) (A549) [%] | % Inhibition (Average) (SKBR3 [3]) [%] | % Inhibition (Average) (SKMES) [%] | Net Gain (Average % Growth Inhibition) (Calu3) [%] | inhibition of cell growth, antibody alone [4] | cytotoxicity when cross-linked [4] | Net Gain (Average % Growth Inhibition) (MDA-MB-361) [%] | Net Gain (Average % Growth Inhibition) (BT474) [%] | Net Gain (Average % Growth Inhibition) (AsPC1) [%] | Net Gain (Average % Growth Inhibition) (Hs746T) [%] | Net Gain (Average % Growth Inhibition) (ES2) [%] | effect of histidine tagged TRAIL on amount bound to immobilized DR5-Fc (DR5-Fc fusion) | amount of immobilized biotinylated antibody (DR5-Fc fusion; 20 μg/mL TRAIL-His) | amount of immobilized biotinylated antibody (DR5-Fc fusion; Buffer) | Net Gain (Average % Growth Inhibition) (SKBR3 [5]) [%] | potency in inducing cytotoxicity versus reference DR5 mAbs [6] | also measured |
| --- | --- | --- | --- | --- | --- | --- | --- | --- | --- | --- | --- | --- | --- | --- | --- | --- | --- | --- | --- | --- | --- |
| DR5 mAb 1: anti-human DR5 monoclonal antibody; VL SEQ ID NO:3, VH SEQ ID NO:8 (antibody, listed as Mus musculus, V domains shown, (1)..(121) Anti-DR5 Antibody mAb 1 Heavy Chain Variable Region; (1)..(111) Anti-DR5 Antibody mAb 1 Light Chain Variable Region) VH: EVKFLESGGGLVQPGGSLKLSCVASGFDFSRYWMSWVRQAPGKGLEWIGEINPDSNTINYTPSLKDKFIISRDNAKNTLYLQMTKVRSEDTALYYCTRRAYYGNPAWFAYWGQGTLVTVSS VL: DIVLTQSPASLAVSLGQRATISCRASKSVSSSGYSYMHWYQQKPGQPPKVLIFLSSNLDSGVPARFSGSGSGTDFTLNIHPVEDGDAATYYCQHSRDLPPTFGGGTKLEIK | 1.75 | 4.18 | 2.1 | 1.66 | 2.79 | 1.97 | 1.75 | 0.11 | neither DR5 mAb 1, nor DR5 mAb 2 alone is capable of inhibiting cell growth | potent cytotoxicity | 5.11 | 2.15 | 5.11 | 0.20 | 4.17 | not affected | 1.939 | 2.118 | 0.69 | more potent | Kd [7]: 32.5 nM; ka [7]: 4.0 × 10^6; kd [7]: 1.3 × 10^−1 |
| DR5 mAb 2: murine anti-human DR5 monoclonal antibody; VL SEQ ID NO:13, VH SEQ ID NO:18 (antibody, listed as Mus musculus, V domains shown, (1)..(119) Anti-DR5 Antibody mAb 2 Heavy Chain Variable Region; (1)..(107) Anti-DR5 Antibody mAb 2 Light Chain Variable Region) VH: KVQLQQSGAELVKPGASVKLSCKASGYTFTEYILHWVKQKSGQGLEWIGWFYPGNNNIKYNEKFKDKATLTADKSSSTVYMELSRLTSEDSAVYFCARHEQGPGYFDYWGQGTTLTVSS VL: DIVMTQSHKFMSTSVGDRVSITCKASQDVNTAVAWYQQKPGQSPKLLIYWASTRHTGVPDRFTGSGSGTDYTLTIKSVQAEDLTLYYCQQHYITPWTFGGGTKLEIK | 2.86 | 4.18 | 1.72 | 2.09 | 4.25 | 2.55 | 1.28 | 0.11 | neither DR5 mAb 1, nor DR5 mAb 2 alone is capable of inhibiting cell growth | potent cytotoxicity | 5.11 | 2.23 | 5.11 | 0.20 | 4.17 | not affected | 2.052 | 2.052 | 0.69 | more potent | Kd [7]: 0.42 nM; ka [7]: 2.4 × 10^5; kd [7]: 1.0 × 10^−4 |
